Article PMC2425495 (Nucleic Acids Research, 2008)

What was measured:
[1] = biological target: the molecule itself; assay: crystal structure
[2] = biological target: T1, HutP (V51I) (Bacillus subtilis, UniProt P10943 1-148, V51I); assay: EMSA
T1 sequence: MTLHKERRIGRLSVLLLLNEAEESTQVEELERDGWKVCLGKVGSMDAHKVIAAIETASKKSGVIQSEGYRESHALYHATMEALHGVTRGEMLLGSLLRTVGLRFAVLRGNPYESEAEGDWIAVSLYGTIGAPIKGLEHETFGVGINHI

Binder	stoichiometry N [1]	binding result [2]
HutP (Val 51 Ile mutant), anti-termination protein of the hut operon (natural protein, Bacillus subtilis) TLHKERRIGRLSVLLLLNEAEESTQVEELERDGWKVCLGKVGSMDAHKVIAAIETASKKSGVIQSEGYRESHALYHATMEALHGVTRGEMLLGSLLRTVGLRFAVLRGNPYESEAEGDWIAVSLYGTIGAPIKGLEHETFGVGINHI	6	–
UUUAGUUUUUAGUUUUUAGUU (ssRNA) [21-mer RNA]	–	binds
